1 molecule from PMC2691816 (Nucleic Acids Research, 2009) can be followed below.

The target of this assay is purified hXRCC1 protein (human, UniProt P18887 1-633). In words: far-Western, overlay or dot blot.
Sequence of purified hXRCC1 protein (P18887 whole entry): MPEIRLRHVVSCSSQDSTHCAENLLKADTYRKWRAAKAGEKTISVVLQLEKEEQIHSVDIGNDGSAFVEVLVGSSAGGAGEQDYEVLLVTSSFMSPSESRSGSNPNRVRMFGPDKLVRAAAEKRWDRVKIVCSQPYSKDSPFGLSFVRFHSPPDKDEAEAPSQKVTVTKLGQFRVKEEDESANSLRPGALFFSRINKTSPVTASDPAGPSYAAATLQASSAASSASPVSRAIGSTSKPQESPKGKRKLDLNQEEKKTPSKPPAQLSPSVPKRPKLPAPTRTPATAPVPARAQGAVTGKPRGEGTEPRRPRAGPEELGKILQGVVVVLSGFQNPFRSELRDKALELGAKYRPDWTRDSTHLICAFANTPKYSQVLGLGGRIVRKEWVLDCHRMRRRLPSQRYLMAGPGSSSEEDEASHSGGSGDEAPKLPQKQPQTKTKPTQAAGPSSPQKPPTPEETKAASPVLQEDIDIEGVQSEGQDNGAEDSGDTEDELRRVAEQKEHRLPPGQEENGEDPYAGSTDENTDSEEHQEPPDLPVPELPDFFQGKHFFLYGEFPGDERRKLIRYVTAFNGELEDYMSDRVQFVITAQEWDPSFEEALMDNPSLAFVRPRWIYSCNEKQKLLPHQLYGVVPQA

B1: His-tagged p58 N-terminal domain (amino acids 1–266) (domain or fragment, human, UniProt P49643 1-266, looked up)
chain: MEFSGRKWRKLRLAGDQRNASYPHCLQFYLQPPSENISLIEFENLAIDRVKLLKSVENLGVSYVKGTEQYQSKLESELRKLKFSYRENLEDEYEPRRRDHISHFILRLAYCQSEELRRWFIQQEMDLLRFRFSILPKDKIQDFLKDSQLQFEAISDEEKTLREQEIVASSPSLSGLKLGFESIYKIPFADALDLFRGRKVYLEDGFAYVPLKDIVAIILNEFRAKLSKALALTARSLPAVQSDERLQPLLNHLSHSYTGQDYSTQG
Turning to B1, the binding result is recorded as “binds”.
